Assay results: US20120058906A1 (published 2012)

Tests used:
[1] = biological target: T1, rHuman CD44/Fc Chimera, CF (R&D Systems Cat#3660-CD) (human, UniProt P16070 21-220); assay: ECL (MSD Multi-Spot) binding, antigen spotted on plate; Fab 25 nM
T1 construct: Bought Fc chimera; Fc part of the bought chimera not given

[2] = biological target: T2, rHuman P-Cadherin/Fc Chimera, CF (R&D Systems Cat#861-PC) (human, UniProt P22223 108-654); assay: as above
T2 construct: Bought Fc chimera; Fc part of the bought chimera not given

[3] = biological target: T3, Recombinant Human DLL4 (R&D Systems Cat#1506-D4/CF) (human, UniProt Q9NR61 27-524); assay: as above
T3 construct: Bought recombinant protein; also called delta-like protein 4

[4] = biological target: T4, rHuman Notch-1/Fc Chimera, CF (R&D Systems Cat#3647-TK) (human, UniProt P46531 19-526); assay: as above
T4 construct: Bought Fc chimera; Fc part of the bought chimera not given

[5] = biological target: T5, rHuman IGF-1 sR, CF (R&D Systems Cat#391-GR) (human, UniProt P08069 31-932); assay: as above
T5 construct: Bought soluble receptor; also called insulin-like growth factor-1 soluble receptor; IGF-R1

[6] = biological target: T6, rHuman Erythropoietin R/Fc Chimera, CF (R&D Systems Cat#963-ER) (human, UniProt P19235 25-250); assay: as above
T6 construct: Bought Fc chimera; also called EPO R/Fc; erythropoietin receptor; Fc part of the bought chimera not given
T6 sequence: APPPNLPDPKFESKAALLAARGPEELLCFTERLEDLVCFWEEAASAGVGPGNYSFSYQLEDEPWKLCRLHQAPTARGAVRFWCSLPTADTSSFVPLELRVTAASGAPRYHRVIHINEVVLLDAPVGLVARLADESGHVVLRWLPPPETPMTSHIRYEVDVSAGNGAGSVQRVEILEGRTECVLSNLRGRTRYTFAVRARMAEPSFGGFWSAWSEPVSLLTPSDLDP

[7] = biological target: T1, rHuman CD44/Fc Chimera, CF (R&D Systems …); assay: ECL (MSD Multi-Spot) binding, antigen spotted on plate; Fab 0.0625 nM
[8] = biological target: T2, rHuman P-Cadherin/Fc Chimera, CF (R&D …); assay: as above
[9] = biological target: T3, Recombinant Human DLL4 (R&D Systems …); assay: as above
[10] = biological target: T4, rHuman Notch-1/Fc Chimera, CF (R&D …); assay: as above
[11] = biological target: T5, rHuman IGF-1 sR, CF (R&D Systems …); assay: as above
[12] = biological target: T6, rHuman Erythropoietin R/Fc Chimera, CF …; assay: as above
[13] = biological target: T1, rHuman CD44/Fc Chimera, CF (R&D Systems …); assay: ECL (MSD Multi-Spot) binding, antigen spotted on plate; Fab 1.25 nM
[14] = biological target: T2, rHuman P-Cadherin/Fc Chimera, CF (R&D …); assay: as above
[15] = biological target: T3, Recombinant Human DLL4 (R&D Systems …); assay: as above
[16] = biological target: T4, rHuman Notch-1/Fc Chimera, CF (R&D …); assay: as above
[17] = biological target: T5, rHuman IGF-1 sR, CF (R&D Systems …); assay: as above
[18] = biological target: T6, rHuman Erythropoietin R/Fc Chimera, CF …; assay: as above
[19] = biological target: T1, rHuman CD44/Fc Chimera, CF (R&D Systems …); assay: ECL (MSD Multi-Spot) binding, antigen spotted on plate; Fab 500 nM
[20] = biological target: T2, rHuman P-Cadherin/Fc Chimera, CF (R&D …); assay: as above
[21] = biological target: T3, Recombinant Human DLL4 (R&D Systems …); assay: as above
[22] = biological target: T4, rHuman Notch-1/Fc Chimera, CF (R&D …); assay: as above
[23] = biological target: T5, rHuman IGF-1 sR, CF (R&D Systems …); assay: as above
[24] = biological target: T6, rHuman Erythropoietin R/Fc Chimera, CF …; assay: as above
[25] = biological target: T7, rHuman EGF R/Fc Chimera, CF (R&D Systems Cat#344-ER) (human, UniProt P00533 25-645); assay: ECL (MSD Multi-Spot) binding, antigen spotted on plate; Fab 50 nM
T7 construct: Bought Fc chimera; also called epidermal growth factor receptor; Fc part of the bought chimera not given

[26] = biological target: T8, rHuman ErbB2/Fc Chimera, CF (R&D Systems Cat#1129-ER) (human, UniProt P04626 23-652); assay: as above
T8 construct: Bought Fc chimera; also called human epidermal growth factor 2 receptor; HER2/neu; Fc part of the bought chimera not given

[27] = biological target: T3, Recombinant Human DLL4 (R&D Systems …); assay: as above
[28] = biological target: T9, rHuman HGF R/c-MET/Fc Chimera, CF (R&D Systems Cat#358-MT/CF) (human, UniProt P08581 25-932); assay: as above
T9 construct: Bought Fc chimera; also called HGF R/Fc; hepatocyte growth factor receptor; Fc part of the bought chimera not given

[29] = biological target: T5, rHuman IGF-1 sR, CF (R&D Systems …); assay: as above
[30] = biological target: T7, rHuman EGF R/Fc Chimera, CF (R&D …); assay: ECL (MSD Multi-Spot) binding, antigen spotted on plate; Fab 5 nM
[31] = biological target: T8, rHuman ErbB2/Fc Chimera, CF (R&D …); assay: as above
[32] = biological target: T3, Recombinant Human DLL4 (R&D Systems …); assay: as above
[33] = biological target: T9, rHuman HGF R/c-MET/Fc Chimera, CF (R&D …); assay: as above
[34] = biological target: T5, rHuman IGF-1 sR, CF (R&D Systems …); assay: as above
[35] = biological target: T7, rHuman EGF R/Fc Chimera, CF (R&D …); assay: ECL (MSD Multi-Spot) binding, antigen spotted on plate; Fab 500 nM
[36] = biological target: T8, rHuman ErbB2/Fc Chimera, CF (R&D …); assay: as above
[37] = biological target: T3, Recombinant Human DLL4 (R&D Systems …); assay: as above; remark: listed apart in the source
[38] = biological target: T9, rHuman HGF R/c-MET/Fc Chimera, CF (R&D …); assay: as above
[39] = biological target: T5, rHuman IGF-1 sR, CF (R&D Systems …); assay: as above; remark: listed apart in the source
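Note: blank spot per well as comparator with Hit at signal to blank ratio of 4 or more.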

B1: Fab VH5-51_IGHD5-18*01>3_IGHJ4*01_G100K_G104T & V3-4_IGLJ1*01 (Fab, V domains shown)
VH: EVQLVQSGAEVKKPGESLKISCKGSGYSFTSYWIGWVRQMPGKGLEWMGIIYPGDSDTRYSPSFQGQVTISADKSISTAYLQWSSLKASDTAMYYCARRKYSYTYDYFDYWGQGTLVTVSS
VL: QTVVTQEPSFSVSPGGTVTLTCGLSSGSVSTSYYPSWYQQTPGQAPRTLIYSTNTRSSGVPDRFSGSILGNKAALTITGAQADDESDYYCVLYMGSGISYVFGTGTKVTVL
notes: Fab made in E. coli
B1 was tested, and the ECL signal [1] was 570, the ECL signal [2] was 269 and the ECL signal [3] was 77900. It also gave an ECL signal [4] of 440, an ECL signal [5] of 780 and an ECL signal [6] of 597. For the same binder, the ECL signal [7] was 394, the ECL signal [8] was 331 and the ECL signal [9] was 1010. It also gave an ECL signal [10] of 439, an ECL signal [11] of 537 and an ECL signal [12] of 332. For the same binder, the ECL signal [13] was 444, the ECL signal [14] was 374 and the ECL signal [15] was 38800. For the same binder, the ECL signal [16] was 312, the ECL signal [17] was 674 and the ECL signal [18] was 448. The ECL signal [19] was 923, the ECL signal [20] was 815 and the ECL signal [21] was 25900. For the same binder, the ECL signal [22] was 703, the ECL signal [23] was 1110 and the ECL signal [24] was 828.

B2: Fab VH1-46_IGHD6-6*01_IGHJ1*01_S102A_S103P_S104F_H111F & L6_IGKJ1*01 (Fab, V domains shown)
VH: QVQLVQSGAEVKKPGASVKVSCKASGYTFTSYYMHWVRQAPGQGLEWMGIINPSGGSTSYAQKFQGRVTMTRDTSTSTVYMELSSLRSEDTAVYYCAREEYAPFSAEYFQFWGQGTLVTVSS
VL: not shown
notes: Fab made in E. coli; The heavy chain also carries the CH1 with Flag and His tags of Plasmid A, and the light chain the kappa constant region of Plasmid C
With B2 the ECL signal [25] was 2040, the ECL signal [26] was 2110 and the ECL signal [27] was 94200. For the same binder, the ECL signal [28] was 1280, the ECL signal [29] was 1230 and the ECL signal [30] was 1160. For the same binder, the ECL signal [31] was 1380, the ECL signal [32] was 150000 and the ECL signal [33] was 1020. It also gave an ECL signal [34] of 917, an ECL signal [35] of 2510 and an ECL signal [36] of 2620. For the same binder, the ECL signal [37] was 29900, the ECL signal [38] was 2040 and the ECL signal [39] was 1870.
